Assay results reported in patent US20230193513A1.

B1: GLP1R-59-241 (antibody, part only; not given: light chain, part only)
heavy: QVQLVQSGAEVKKPGSSVKVSCKASGGTFSDYAISWVRQAPGQGLEWMGGIIPIFGTTNYAQKFQGRVTITADESTSTAYMELSSLRSEDTAVYYCAKHMSMQGSVAGGTFTSDVSSYLEGQAAKEFIAWLVKGGPSFIRADLVGDAFDVWGQGTLVTVSSASASTKGPSVFPLAPCSRSTSESTAALGCLVKDYFPEPVTVSWNSGALTSGVHTFPAVLQSSGLYSLSSVVTVPSSNFGTQTYTCNVDHKPSNTKVDKTVERKCCVECPPCPAPPVAGPSVFLFPPKPKDTLMISRTPEVTCVVVDVSHEDPEVQFNWYVDGVEVHNAKTKPREEQFNSTFRVVSVLTVVHQDWLNGKEYKCKVSNKGLPAPIEKTISKTKGQPREPQVYTLPPSREEMTKNQVSLTCLVKGFYPSDIAVEWESNGQPENNYKTTPPMLDSDGSFFLYSKLTVDKSRWQQGNVFSCSVMHEALHNHYTQKSLSLSPG
B2: GLP1R-3 (antibody, from a related filing, V domains shown, part only)
VH: QVQLVESGGGVVQPGRSLRLSCAASGFTFSSYGMHWVRQAPGKGLEWVSFISYDESNKYYADSVKGRFTISRDNSKNTLYLQMNSLRAEDTAVYYCAKHMSMQEGAVTGEGQAAKEFIAWLVKGRVRADLVGDAFDVWGQGTLVTVSS
VL: QSVLTQPPSVSAAPGQKVTISCSGSSSNIADNYVSWYQQLPGTAPKLLIYDNNKRPSGIPDRFSGSKSGTSATLGITGLQTGDEADYYCGTWDNYLGAGVFGGGTKLTVLG
B3: GLP1R-59-243 (antibody, part only; not given: light chain, part only)
heavy: QVQLVQSGAEVKKPGSSVKVSCKASGGTFSTYGINWVRQAPGQGLEWMGGIIPIFGTANYAQKFQGRVTITADESTSTAYMELSSLRSEDTAVYYCARANQHFFGKGDNLAARDFINWLIQTKITDGSNPGYHYYGMDVWGQGTLVTVSSASASTKGPSVFPLAPCSRSTSESTAALGCLVKDYFPEPVTVSWNSGALTSGVHTFPAVLQSSGLYSLSSVVTVPSSNFGTQTYTCNVDHKPSNTKVDKTVERKCCVECPPCPAPPVAGPSVFLFPPKPKDTLMISRTPEVTCVVVDVSHEDPEVQFNWYVDGVEVHNAKTKPREEQFNSTFRVVSVLTVVHQDWLNGKEYKCKVSNKGLPAPIEKTISKTKGQPREPQVYTLPPSREEMTKNQVSLTCLVKGFYPSDIAVEWESNGQPENNYKTTPPMLDSDGSFFLYSKLTVDKSRWQQGNVFSCSVMHEALHNHYTQKSLSLSPG

Molecular target: glucagon-like peptide-1 receptor (GLP1R) (Homo sapiens (Human)) (UniProt P43220)
Assay: cell-based or functional assay

glucagon-like peptide-1 receptor (GLP1R) (Homo sapiens (Human)), sequence (P43220 24-463): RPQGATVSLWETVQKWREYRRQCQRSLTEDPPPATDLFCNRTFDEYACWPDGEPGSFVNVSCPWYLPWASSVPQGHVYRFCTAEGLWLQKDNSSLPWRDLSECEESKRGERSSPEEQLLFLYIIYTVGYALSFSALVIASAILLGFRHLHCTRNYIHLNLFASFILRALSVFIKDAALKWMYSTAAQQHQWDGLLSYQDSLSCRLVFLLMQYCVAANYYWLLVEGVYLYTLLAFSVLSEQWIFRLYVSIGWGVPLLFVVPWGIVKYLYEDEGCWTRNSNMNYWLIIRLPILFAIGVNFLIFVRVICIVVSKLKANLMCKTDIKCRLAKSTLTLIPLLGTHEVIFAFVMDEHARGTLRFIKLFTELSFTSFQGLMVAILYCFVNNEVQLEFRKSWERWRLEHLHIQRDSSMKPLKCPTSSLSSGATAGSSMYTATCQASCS

| Binder | EC50 (nM) of the IgG as agonist, functional assay on GLP-1R overexpressing cells [nM] | EC50 (nM) of Exendin-4 induced cAMP activity with the antibody [nM] | EC50 (nM) of GLP1 (7-36)-induced signaling with GLP1R IgG (+100 nM) [nM] | fold difference of the EC50 against no antibody [fold] | fold-diff of the Exendin-4 EC50 against Exendin-4 alone [fold] |
| --- | --- | --- | --- | --- | --- |
| B1 | 0.722 |  |  |  |  |
| B2 |  | 0.63 | 1.31 | 2.2 | 5.4 |
| B3 | 0.821 |  |  |  |  |
